Measurements: article PMC3435407 (PLoS ONE, 2012)
Non-standard residues stand in square brackets, D forms with d. No end group written: not given here. *: point of attachment. Biotin = O=C1N[C@H]2[C@H](CS[C@H]2CCCCC(=O)*)N1; Bpa = N[C@@H](Cc1ccc(C(=O)c2ccccc2)cc1)C(=O)O

What was measured:
[1] = target: T1, αAG98R-crystallin (human αA-crystallin G98R mutant) (human, UniProt P02489 1-173, G98R); experiment: cross-linking; 200 µg biotinyl-Bpa peptide with 200 µg αAG98R, pH 7.2, 37°C, 1 hr; free peptide removed on a 10 kDa filter; photolysis at 365 nm, 30 min, 4°C; desalted on C18; MALDI-TOF/TOF mass spectrometry; conditions: both partners purified
T1 sequence (P02489 whole entry G98R): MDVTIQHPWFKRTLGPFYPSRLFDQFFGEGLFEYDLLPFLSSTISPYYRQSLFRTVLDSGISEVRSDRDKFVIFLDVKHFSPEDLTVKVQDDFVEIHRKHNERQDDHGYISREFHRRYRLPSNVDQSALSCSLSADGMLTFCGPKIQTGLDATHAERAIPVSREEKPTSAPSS

[2] = target: T1, αAG98R-crystallin (human αA-crystallin …); experiment: cross-linking; 200 µg biotinyl-Bpa peptide with 200 µg αAG98R, pH 7.2, 37°C, 1 hr; free peptide removed on a 10 kDa filter; photolysis at 365 nm, 30 min, 4°C; SDS-PAGE and western blot for biotin (avidin-horseradish peroxidase); conditions: both partners purified

B1: Biotin-DFVIFLDVKH(Bpa)SPEDLTVK (biotinyl αA-mini-chaperone-Bpa peptide) (peptide)
peptide: Biotin-DFVIFLDVKH[Bpa]SPEDLTVK
[1]
  stoichiometry N: 1 peptide per αAG98R monomer
[2]
  stoichiometry N: 1 peptide per αAG98R subunit
